Measurements published in IntAct's records for PubMed 25096571.

B1: Forkhead box protein P3 (Homo sapiens), Q9BZS1-1 (parent)
chain: MPNPRPGKPSAPSLALGPSPGASPSWRAAPKASDLLGARGPGGTFQGRDLRGGAHASSSSLNPMPPSQLQLPTLPLVMVAPSGARLGPLPHLQALLQDRPHFMHQLSTVDAHARTPVLQVHPLESPAMISLTPPTTATGVFSLKARPGLPPGINVASLEWVSREPALLCTFPNPSAPRKDSTLSAVPQSSYPLLANGVCKWPGCEKVFEEPEDFLKHCQADHLLDEKGRAQCLLQREMVQSLEQQLVLEKEKLSAMQAHLAGKMALTKASSVASSDKGSCCIVAAGSQGPVVPAWSGPREAPDSLFAVRRHLWGSHGNSTFPEFLHNMDYFKFHNMRPPFTYATLIRWAILEAPEKQRTLNEIYHWFTRMFAFFRNHPATWKNAIRHNLSLHKCFVRVESEKGAVWTVDELEFRKKRSQRPSRCSNPTPGP

Variants of: B1
Settings: with PIM1, P11309-1

Q: How did the “effect of a mutation on the interaction” value turn out when S418A was run?
A: decreasing interaction strength

Q: Which “effect of a mutation on the interaction” value does the source give for S418C here?
A: increasing interaction strength

Q: Which “effect of a mutation on the interaction” value does the source give for S418D here?
A: disrupting interaction strength

Q: For S418G, which “effect of a mutation on the interaction” value is on record?
A: increasing interaction strength

Variants of: B1
Settings: with PIM1, P11309-1
Remark: another data set of the same source

Q: For S422A, which “effect of a mutation on the interaction” value is on record?
A: decreasing interaction strength
